B1: His-VAO (vanillyl alcohol oxidase) (Penicillium simplicissimum) (protein)
chain: MSKTQEFRPLTLPPKLSLSDFNEFIQDIIRIVGSENVEVISSKDQIVDGSYMKPTHTHDPHHVMDQDYFLASAIVAPRNVADVQSIVGLANKFSFPLWPISIGRNSGYGGAAPRVSGSVVLDMGKNMNRVLEVNVEGAYCVVEPGVTYHDLHNYLEANNLRDKLWLDVPDLGGGSVLGNAVERGVGYTPYGDHWMMHSGMEVVLANGELLRTGMGALPDPKRPETMGLKPEDQPWSKIAHLFPYGFGPYIDGLFSQSNMGIVTKIGIWLMPNPRGYQSYLITLPKDGDLKQAVDIIRPLRLGMALQNVPTIRHILLDAAVLGDKRSYSSRTEPLSDEELDKIAKQLNLGRWNFYGALYGPEPIRRVLWETIKDAFSAIPGVKFYFPEDTPENSVLRVRDKTMQGIPTYDELKWIDWLPNGAHLFFSPIAKVSGEDAMMQYAVTKKRCQEAGLDFIGTFTVGMREMHHIVCIVFNKKDLIQKRKVQWLMRTLIDDCAANGWGEYRTHLAFMDQIMETYNWNNSSFLRFNEVLKNAVDPNGIIAPGKSGVWPSQYSHVTWKL
notes: N-terminal 6xHis tag plus single Gly, tag kept; codon-optimised, E. coli BL21; covalent FAD; VAO predominantly octameric
B2: EUGO-His (eugenol oxidase) (Rhodococcus jostii RHA1) (protein)
chain: MTRTLPPGVSDERFDAALQRFRDVVGDKWVLSTADELEAFRDPYPVGAAEANLPSAVVSPESTEQVQDIVRIANEYGIPLSPVSTGKNNGYGGAAPRLSGSVIVKTGERMNRILEVNEKYGYALLEPGVTYFDLYEYLQSHDSGLMLDCPDLGWGSVVGNTLDRGVGYTPYGDHFMWQTGLEVVLPQGEVMRTGMGALPGSDAWQLFPYGFGPFPDGMFTQSNLGIVTKMGIALMQRPPASQSFLITFDKEEDLEQIVDIMLPLRINMAPLQNVPVLRNIFMDAAAVSKRTEWFDGDGPMPAEAIERMKKDLDLGFWNFYGTLYGPPPLIEMYYGMIKEAFGKIPGARFFTHEERDDRGGHVLQDRHKINNGIPSLDELQLLDWVPNGGHIGFSPVSAPDGREAMKQFEMVRNRANEYNKDYAAQFIIGLREMHHVCLFIYDTAIPEAREEILQMTKVLVREAAEAGYGEYRTHNALMDDVMATFNWGDGALLKFHEKIKDALDPNGIIAPGKSGIWSQRFRGQNL
notes: E. coli TOP10; covalent FAD; EUGO dimeric

Columns and labels:
purified protein [1] = substrate: COc1cc(CO)ccc1O; assay: purified protein; assay type: biochemical, Penicillium simplicissimum; conditions: 50 mM potassium phosphate, pH 7.5, 25 °C, O2 as electron acceptor
purified protein [2] = substrate: COc1cc(CO)ccc1O; assay: purified protein; assay type: biochemical, Rhodococcus jostii; conditions: 50 mM potassium phosphate, pH 7.5, 25 °C, O2 as electron acceptor

| Protein | Km (purified protein [1]) | kcat (purified protein [1]) | kcat/Km (purified protein [1]) | Km (purified protein [2]) | kcat (purified protein [2]) | kcat/Km (purified protein [2]) |
| --- | --- | --- | --- | --- | --- | --- |
| B1 | 129 ± 15 µM | 2.5 ± 0.1 s⁻¹ | 19000 M⁻¹ s⁻¹ | – | – | – |
| B2 | – | – | – | 47 ± 5 µM | 8 ± 0.2 s⁻¹ | 170000 M⁻¹ s⁻¹ |

— article PMC6017454, “A Xylenol Orange-Based Screening Assay for the Substrate Specificity of Flavin-Dependent para-Phenol Oxidases” (Molecules : A Journal of Synthetic Chemistry and Natural …, 2018)
